Reference: patent US20200199234A1 (published 2020)

Assays:
[1] = target: T1, FcRn, biotinylated, coupled to streptavidin-sepharose (Homo sapiens (Human), UniProt P55899 24-297; P61769 21-119, The receptor is biotinylated and coupled to streptavidin-sepharose. The patent states neither the biotinylation site nor any tag.); test: FcRn affinity chromatography
T1 construct: also called FcRn-sepharose matrix; copies: 1 + 1

[2] = target: T2, recombinant CD79b-His (Sinobiological #29750-H08H) (Homo sapiens (Human), UniProt P40259 29-159); test: SPR Biacore T200, CD79b-His captured by anti-penta-His
T2 construct: bought protein; also called soluble recombinant CD79b-His
T2 sequence: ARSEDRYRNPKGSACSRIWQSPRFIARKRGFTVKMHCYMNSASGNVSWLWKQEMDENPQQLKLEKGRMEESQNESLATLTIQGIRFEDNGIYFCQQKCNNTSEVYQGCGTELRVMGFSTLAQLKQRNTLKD

[3] = target: T3, human CD19 on Nalm6 B cells (human, UniProt P15391 20-556); test: flow cytometry on Nalm6 cells
T3 sequence: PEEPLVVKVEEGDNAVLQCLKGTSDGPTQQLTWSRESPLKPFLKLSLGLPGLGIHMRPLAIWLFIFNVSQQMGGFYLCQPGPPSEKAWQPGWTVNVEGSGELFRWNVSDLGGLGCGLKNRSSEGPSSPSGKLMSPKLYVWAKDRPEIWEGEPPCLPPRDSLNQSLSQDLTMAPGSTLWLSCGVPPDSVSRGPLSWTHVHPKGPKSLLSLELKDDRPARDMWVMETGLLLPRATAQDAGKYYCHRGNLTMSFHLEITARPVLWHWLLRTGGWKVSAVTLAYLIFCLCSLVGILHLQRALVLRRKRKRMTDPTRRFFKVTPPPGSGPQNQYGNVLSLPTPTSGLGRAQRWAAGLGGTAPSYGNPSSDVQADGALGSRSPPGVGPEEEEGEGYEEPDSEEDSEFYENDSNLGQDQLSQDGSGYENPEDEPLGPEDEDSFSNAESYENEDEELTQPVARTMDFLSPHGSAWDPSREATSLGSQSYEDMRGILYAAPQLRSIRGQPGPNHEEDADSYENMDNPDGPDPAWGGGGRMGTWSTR

[4] = target: T4, human CD28 expressed on cells (CHO-k1 stably overexpressing human CD28; T cells in functional assays) (human, UniProt P10747 19-220); test: flow cytometry on CHOk1-CD28 cells
T4 construct: also called CHO huCD28; CHOk1-CD28

B1: Molecule 11D: CEA (A5H1EL1D)-CD28 (SA_Variant 29) 1+1 format (bispecific antibody, human IgG1, kappa, L234A L235A)
heavy 1: EIVLTQSPATLSLSPGERATLSCRASSSVTYIHWYQQKPGQAPRSWIYATSNLASGIPARFSGSGSGTDFTLTISSLEPEDFAVYYCQHWSSKPPTFGQGTKLEIKSSASTKGPSVFPLAPSSKSTSGGTAALGCLVKDYFPEPVTVSWNSGALTSGVHTFPAVLQSSGLYSLSSVVTVPSSSLGTQTYICNVNHKPSNTKVDKKVEPKSCDKTHTCPPCPAPEAAGGPSVFLFPPKPKDTLMISRTPEVTCVVVDVSHEDPEVKFNWYVDGVEVHNAKTKPREEQYNSTYRVVSVLTVLHQDWLNGKEYKCKVSNKALGAPIEKTISKAKGQPREPQVCTLPPSRDELTKNQVSLSCAVKGFYPSDIAVEWESNGQPENNYKTTPPVLDSDGSFFLVSKLTVDKSRWQQGNVFSCSVMHEALHNHYTQKSLSLSP
light 1: EVQLLESGGGLVQPGGSLRLSCAASGFTFTDYYMNWVRQAPGKGLEWLGFIGNKANAYTTEYSASVKGRFTISRDKSKNTLYLQMNSLRAEDTATYYCTRDRGLRFYFDYWGQGTTVTVSSASVAAPSVFIFPPSDEQLKSGTASVVCLLNNFYPREAKVQWKVDNALQSGNSQESVTEQDSKDSTYSLSSTLTLSKADYEKHKVYACEVTHQGLSSPVTKSFNRGEC
heavy 2: not shown
light 2: not shown
notes: also called P1AE4776; copies: 1 + 1 + 1 + 1
FcRn affinity (relative retention time) [1]: 0.17

B2: Molecule 11A: CEA (A5H1EL1D)-CD28 (SA) 1+1 format (bispecific antibody, human IgG1, kappa, L234A L235A)
heavy 1: EIVLTQSPATLSLSPGERATLSCRASSSVTYIHWYQQKPGQAPRSWIYATSNLASGIPARFSGSGSGTDFTLTISSLEPEDFAVYYCQHWSSKPPTFGQGTKLEIKSSASTKGPSVFPLAPSSKSTSGGTAALGCLVKDYFPEPVTVSWNSGALTSGVHTFPAVLQSSGLYSLSSVVTVPSSSLGTQTYICNVNHKPSNTKVDKKVEPKSCDKTHTCPPCPAPEAAGGPSVFLFPPKPKDTLMISRTPEVTCVVVDVSHEDPEVKFNWYVDGVEVHNAKTKPREEQYNSTYRVVSVLTVLHQDWLNGKEYKCKVSNKALGAPIEKTISKAKGQPREPQVCTLPPSRDELTKNQVSLSCAVKGFYPSDIAVEWESNGQPENNYKTTPPVLDSDGSFFLVSKLTVDKSRWQQGNVFSCSVMHEALHNHYTQKSLSLSP
light 1: EVQLLESGGGLVQPGGSLRLSCAASGFTFTDYYMNWVRQAPGKGLEWLGFIGNKANAYTTEYSASVKGRFTISRDKSKNTLYLQMNSLRAEDTATYYCTRDRGLRFYFDYWGQGTTVTVSSASVAAPSVFIFPPSDEQLKSGTASVVCLLNNFYPREAKVQWKVDNALQSGNSQESVTEQDSKDSTYSLSSTLTLSKADYEKHKVYACEVTHQGLSSPVTKSFNRGEC
heavy 2: not shown
light 2: not shown
notes: also called P1AE4773; copies: 1 + 1 + 1 + 1
FcRn affinity (relative retention time) [1]: 0.21

B3: Molecule 11B: CEA (A5H1EL1D)-CD28 (SA_Variant 8) 1+1 format (bispecific antibody, human IgG1, kappa, L234A L235A)
heavy 1: EIVLTQSPATLSLSPGERATLSCRASSSVTYIHWYQQKPGQAPRSWIYATSNLASGIPARFSGSGSGTDFTLTISSLEPEDFAVYYCQHWSSKPPTFGQGTKLEIKSSASTKGPSVFPLAPSSKSTSGGTAALGCLVKDYFPEPVTVSWNSGALTSGVHTFPAVLQSSGLYSLSSVVTVPSSSLGTQTYICNVNHKPSNTKVDKKVEPKSCDKTHTCPPCPAPEAAGGPSVFLFPPKPKDTLMISRTPEVTCVVVDVSHEDPEVKFNWYVDGVEVHNAKTKPREEQYNSTYRVVSVLTVLHQDWLNGKEYKCKVSNKALGAPIEKTISKAKGQPREPQVCTLPPSRDELTKNQVSLSCAVKGFYPSDIAVEWESNGQPENNYKTTPPVLDSDGSFFLVSKLTVDKSRWQQGNVFSCSVMHEALHNHYTQKSLSLSP
light 1: EVQLLESGGGLVQPGGSLRLSCAASGFTFTDYYMNWVRQAPGKGLEWLGFIGNKANAYTTEYSASVKGRFTISRDKSKNTLYLQMNSLRAEDTATYYCTRDRGLRFYFDYWGQGTTVTVSSASVAAPSVFIFPPSDEQLKSGTASVVCLLNNFYPREAKVQWKVDNALQSGNSQESVTEQDSKDSTYSLSSTLTLSKADYEKHKVYACEVTHQGLSSPVTKSFNRGEC
heavy 2: not shown
light 2: not shown
notes: also called P1AE4774; copies: 1 + 1 + 1 + 1
FcRn affinity (relative retention time) [1]: 0.08

B4: Molecule 11C: CEA (A5H1EL1D)-CD28 (SA_Variant 15) 1+1 format (bispecific antibody, human IgG1, kappa, L234A L235A)
heavy 1: EIVLTQSPATLSLSPGERATLSCRASSSVTYIHWYQQKPGQAPRSWIYATSNLASGIPARFSGSGSGTDFTLTISSLEPEDFAVYYCQHWSSKPPTFGQGTKLEIKSSASTKGPSVFPLAPSSKSTSGGTAALGCLVKDYFPEPVTVSWNSGALTSGVHTFPAVLQSSGLYSLSSVVTVPSSSLGTQTYICNVNHKPSNTKVDKKVEPKSCDKTHTCPPCPAPEAAGGPSVFLFPPKPKDTLMISRTPEVTCVVVDVSHEDPEVKFNWYVDGVEVHNAKTKPREEQYNSTYRVVSVLTVLHQDWLNGKEYKCKVSNKALGAPIEKTISKAKGQPREPQVCTLPPSRDELTKNQVSLSCAVKGFYPSDIAVEWESNGQPENNYKTTPPVLDSDGSFFLVSKLTVDKSRWQQGNVFSCSVMHEALHNHYTQKSLSLSP
light 1: EVQLLESGGGLVQPGGSLRLSCAASGFTFTDYYMNWVRQAPGKGLEWLGFIGNKANAYTTEYSASVKGRFTISRDKSKNTLYLQMNSLRAEDTATYYCTRDRGLRFYFDYWGQGTTVTVSSASVAAPSVFIFPPSDEQLKSGTASVVCLLNNFYPREAKVQWKVDNALQSGNSQESVTEQDSKDSTYSLSSTLTLSKADYEKHKVYACEVTHQGLSSPVTKSFNRGEC
heavy 2: not shown
light 2: not shown
notes: also called P1AE4775; copies: 1 + 1 + 1 + 1
FcRn affinity (relative retention time) [1]: 0.1

B5: Molecule 18F: CD79b (huMA79b.v28)-CD28 (SA v15) 1+1 (bispecific antibody, human IgG1, kappa, L234A L235A)
heavy 1: not shown
heavy 2: DIQLTQSPSSLSASVGDRVTITCKASQSVDYEGDSFLNWYQQKPGKAPKLLIYAASNLESGVPSRFSGSGSGTDFTLTISSLQPEDFATYYCQQSNEDPLTFGQGTKVEIKSSASTKGPSVFPLAPSSKSTSGGTAALGCLVKDYFPEPVTVSWNSGALTSGVHTFPAVLQSSGLYSLSSVVTVPSSSLGTQTYICNVNHKPSNTKVDKKVEPKSCDKTHTCPPCPAPEAAGGPSVFLFPPKPKDTLMISRTPEVTCVVVDVSHEDPEVKFNWYVDGVEVHNAKTKPREEQYNSTYRVVSVLTVLHQDWLNGKEYKCKVSNKALGAPIEKTISKAKGQPREPQVCTLPPSRDELTKNQVSLSCAVKGFYPSDIAVEWESNGQPENNYKTTPPVLDSDGSFFLVSKLTVDKSRWQQGNVFSCSVMHEALHNHYTQKSLSLSP
light 1: not shown
light 2: EVQLVESGGGLVQPGGSLRLSCAASGYTFSSYWIEWVRQAPGKGLEWIGEILPGGGDTNYNEIFKGRATFSADTSKNTAYLQMNSLRAEDTAVYYCTRRVPIRLDYWGQGTLVTVSSASVAAPSVFIFPPSDEQLKSGTASVVCLLNNFYPREAKVQWKVDNALQSGNSQESVTEQDSKDSTYSLSSTLTLSKADYEKHKVYACEVTHQGLSSPVTKSFNRGEC
notes: also called P1AE9039; CD79b-CD28
Kd [2]: 76 nM | koff [2]: 0.0195 s⁻¹ | kon [2]: 257000 M⁻¹ s⁻¹

B6: Molecule 18D: CD19 (8B8-2B11)-CD28 (SA v11) 1+1 (bispecific antibody, human IgG1, kappa, L234A L235A)
heavy 1: not shown
heavy 2: DIVMTQTPLSLSVTPGQPASISCKSSQSLETSTGTTYLNWYLQKPGQSPQLLIYRVSKRFSGVPDRFSGSGSGTDFTLKISRVEAEDVGVYYCLQLLEDPYTFGQGTKLEIKSSASTKGPSVFPLAPSSKSTSGGTAALGCLVKDYFPEPVTVSWNSGALTSGVHTFPAVLQSSGLYSLSSVVTVPSSSLGTQTYICNVNHKPSNTKVDKKVEPKSCDKTHTCPPCPAPEAAGGPSVFLFPPKPKDTLMISRTPEVTCVVVDVSHEDPEVKFNWYVDGVEVHNAKTKPREEQYNSTYRVVSVLTVLHQDWLNGKEYKCKVSNKALGAPIEKTISKAKGQPREPQVCTLPPSRDELTKNQVSLSCAVKGFYPSDIAVEWESNGQPENNYKTTPPVLDSDGSFFLVSKLTVDKSRWQQGNVFSCSVMHEALHNHYTQKSLSLSP
light 1: not shown
light 2: QVQLVQSGAEVKKPGASVKVSCKASGYTFTDYIMHWVRQAPGQGLEWMGYINPYNDGSKYTEKFQGRVTMTSDTSISTAYMELSRLRSDDTAVYYCARGTYYYGPQLFDYWGQGTTVTVSSASVAAPSVFIFPPSDEQLKSGTASVVCLLNNFYPREAKVQWKVDNALQSGNSQESVTEQDSKDSTYSLSSTLTLSKADYEKHKVYACEVTHQGLSSPVTKSFNRGEC
notes: also called P1AF0377; CD19-CD28 v11
EC50 [3]: 0.363 nM | EC50 [4]: 150 nM

B7: Molecule 18E: CD19 (8B8-2B11)-CD28 (SA v27) 1+1 (bispecific antibody, human IgG1, kappa, L234A L235A)
heavy 1: not shown
heavy 2: DIVMTQTPLSLSVTPGQPASISCKSSQSLETSTGTTYLNWYLQKPGQSPQLLIYRVSKRFSGVPDRFSGSGSGTDFTLKISRVEAEDVGVYYCLQLLEDPYTFGQGTKLEIKSSASTKGPSVFPLAPSSKSTSGGTAALGCLVKDYFPEPVTVSWNSGALTSGVHTFPAVLQSSGLYSLSSVVTVPSSSLGTQTYICNVNHKPSNTKVDKKVEPKSCDKTHTCPPCPAPEAAGGPSVFLFPPKPKDTLMISRTPEVTCVVVDVSHEDPEVKFNWYVDGVEVHNAKTKPREEQYNSTYRVVSVLTVLHQDWLNGKEYKCKVSNKALGAPIEKTISKAKGQPREPQVCTLPPSRDELTKNQVSLSCAVKGFYPSDIAVEWESNGQPENNYKTTPPVLDSDGSFFLVSKLTVDKSRWQQGNVFSCSVMHEALHNHYTQKSLSLSP
light 1: not shown
light 2: QVQLVQSGAEVKKPGASVKVSCKASGYTFTDYIMHWVRQAPGQGLEWMGYINPYNDGSKYTEKFQGRVTMTSDTSISTAYMELSRLRSDDTAVYYCARGTYYYGPQLFDYWGQGTTVTVSSASVAAPSVFIFPPSDEQLKSGTASVVCLLNNFYPREAKVQWKVDNALQSGNSQESVTEQDSKDSTYSLSSTLTLSKADYEKHKVYACEVTHQGLSSPVTKSFNRGEC
notes: also called P1AF0378; CD19-CD28 v27
EC50 [3]: 0.368 nM | EC50 [4]: 10.8 nM
